Laboratory results from patent US20120316071A1 (published 2012).
One block for each binder: values may come before it.

Tests used:
[1] = biological target: T1, rHuman IGF-1 sR, (IGF-1 sR), CF (R&D Systems Cat#391-GR) (human, UniProt P08069 31-932); test: MSD multispot ECL, antigen spotted, Fab 9.3 nM; blank spot 287
T1 construct: Bought soluble receptor; also called insulin-like growth factor-1 soluble receptor

[2] = biological target: T2, rHuman Erythropoietin R/Fc Chimera, CF (R&D Systems Cat#963-ER) (human, UniProt P19235 25-250); test: as above
T2 construct: Bought reagent; also called EPO R/Fc; Epo R
T2 sequence (looked up): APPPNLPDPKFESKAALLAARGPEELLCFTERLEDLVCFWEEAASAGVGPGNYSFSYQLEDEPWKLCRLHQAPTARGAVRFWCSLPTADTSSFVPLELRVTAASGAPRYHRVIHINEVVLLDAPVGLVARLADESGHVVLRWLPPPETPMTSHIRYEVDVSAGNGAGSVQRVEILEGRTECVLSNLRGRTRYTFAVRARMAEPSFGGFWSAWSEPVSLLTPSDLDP

[3] = biological target: T3, rHuman ErbB2/Fc Chimera, CF (R&D Systems Cat#1129-ER) (human, UniProt P04626 23-652); test: as above
T3 construct: Bought reagent; also called human epidermal growth factor 2 receptor

[4] = biological target: T4, Recombinant Human DLL4 (R&D Systems Cat#1506-D4/CF) (human, UniProt Q9NR61 27-524); test: as above
T4 construct: Bought recombinant protein; also called rHuman DLL4; delta-like protein 4

[5] = biological target: T5, rHuman EGF R/Fc Chimera, CF (R&D Systems Cat#344-ER) (human, UniProt P00533 25-645); test: as above
T5 construct: Bought reagent; also called epidermal growth factor receptor

[6] = biological target: T6, rHuman CD44/Fc Chimera, CF (R&D Systems Cat#3660-CD) (human, UniProt P16070 21-220); test: as above
T6 construct: Bought reagent

[7] = biological target: T7, rHuman Notch-1/Fc Chimera, CF (R&D Systems Cat#3647-TK) (human, UniProt P46531 19-526); test: as above
T7 construct: Bought reagent

[8] = biological target: T8, rHuman HGF R/c-MET/Fc Chimera, CF (R&D Systems Cat#358-MT/CF) (human, UniProt P08581 25-932); test: as above
T8 construct: Bought reagent; also called HGF R/Fc; hepatocyte growth factor receptor

[9] = biological target: T9, rHuman Notch-1/Fc Chimera, CF (R&D Systems Cat#3647-TK) (human, UniProt P46531 19-526); test: Multispot ECL (MSD) titration; antigen spotted on plate; Fab 14.5 nM; blank spot 117
T9 construct: Bought Fc chimera; Fc part of the bought chimera not given

[10] = biological target: T10, rHuman CD44/Fc Chimera, CF (R&D Systems Cat#3660-CD) (human, UniProt P16070 21-220); test: as above
T10 construct: Bought Fc chimera; Fc part of the bought chimera not given

[11] = biological target: T11, Recombinant Human DLL4 (R&D Systems Cat#1506-D4/CF) (human, UniProt Q9NR61 27-524); test: as above
T11 construct: Bought recombinant protein; also called delta-like protein 4; rHuman DLL4

[12] = biological target: T12, rHuman Erythropoietin R/Fc Chimera, CF (R&D Systems Cat#963-ER) (human, UniProt P19235 25-250); test: as above
T12 construct: Bought Fc chimera; also called EPO R/Fc; EPO R; Fc part of the bought chimera not given
T12 sequence (looked up): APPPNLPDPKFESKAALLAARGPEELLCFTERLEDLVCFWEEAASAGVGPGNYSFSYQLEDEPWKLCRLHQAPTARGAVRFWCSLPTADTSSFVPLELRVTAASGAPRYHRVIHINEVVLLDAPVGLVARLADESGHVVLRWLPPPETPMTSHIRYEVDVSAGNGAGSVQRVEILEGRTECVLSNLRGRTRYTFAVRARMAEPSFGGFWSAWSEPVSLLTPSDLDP

[13] = biological target: T13, rHuman Notch-1/Fc Chimera, CF (R&D Systems Cat#3647-TK) (human, UniProt P46531 19-526); test: MSD multispot ECL, antigen spotted on plate, Fab 88.1 nM; blank spot 301
T13 construct: Bought from R&D Systems; not shown: Fc of the bought chimera

[14] = biological target: T14, rHuman IGF-1 sR, (IGF-1 sR), CF (R&D Systems Cat#391-GR) (human, UniProt P08069 31-932); test: as above
T14 construct: Bought from R&D Systems and called a soluble receptor; also called insulin-like growth factor-1 soluble receptor

[15] = biological target: T15, rHuman ErbB2/Fc Chimera, CF (R&D Systems Cat#1129-ER) (human, UniProt P04626 23-652); test: as above
T15 construct: Bought from R&D Systems; also called human epidermal growth factor 2 receptor (ErbB2); not shown: Fc of the bought chimera

[16] = biological target: T16, rHuman EGF R/Fc Chimera, CF (R&D Systems Cat#344-ER) (human, UniProt P00533 25-645); test: as above
T16 construct: Bought from R&D Systems; also called epidermal growth factor receptor (EGF R); not shown: Fc of the bought chimera

[17] = biological target: T17, rHuman HGF R/c-MET/Fc Chimera, CF (R&D Systems Cat#358-MT/CF) (human, UniProt P08581 25-932); test: as above
T17 construct: Bought from R&D Systems; also called HGF R/Fc; hepatocyte growth factor receptor (HGF R/c-Met); not shown: Fc of the bought chimera

[18] = biological target: T18, rHuman Erythropoietin R/Fc Chimera, CF (R&D Systems Cat#963-ER) (human, UniProt P19235 25-250); test: as above
T18 construct: Bought from R&D Systems; also called EPO R/Fc; Epo R/Fc chimera; not shown: Fc of the bought chimera
T18 sequence (looked up): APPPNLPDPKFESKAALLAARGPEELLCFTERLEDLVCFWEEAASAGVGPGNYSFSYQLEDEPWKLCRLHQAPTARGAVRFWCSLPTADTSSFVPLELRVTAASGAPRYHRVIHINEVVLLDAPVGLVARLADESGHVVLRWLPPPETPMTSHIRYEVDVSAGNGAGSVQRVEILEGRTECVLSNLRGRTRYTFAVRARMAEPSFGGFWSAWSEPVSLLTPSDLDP

ECL signal [1]: 315 ECL signal | ECL signal [2]: 306 ECL signal | ECL signal [3]: 354 ECL signal | ECL signal [4]: 13200 ECL signal | ECL signal [5]: 424 ECL signal | ECL signal [6]: 396 ECL signal | ECL signal [7]: 492 ECL signal | ECL signal [8]: 324 ECL signal
B1: Fab VH1-46_IGHD6-6*01_IGHJ1*01 & L6_IGKJ1*01 (Fab, V domains shown)
VH: QVQLVQSGAEVKKPGASVKVSCKASGYTFTSYYMHWVRQAPGQGLEWMGIINPSGGSTSYAQKFQGRVTMTRDTSTSTVYMELSSLRSEDTAVYYCAREEYSSSSAEYFQHWGQGTLVTVSS
VL: not shown
notes: Only variable domains are tied to the molecule; Tested as a Fab made in E. coli: heavy chain from Plasmid A (CH1 constant region, His6 and Flag tags), kappa light chain from Plasmid C (kappa CL); also called parent Hit Fab against DLL4; VH1-46_IGHD6-6*01_IGHJ1*01 & L6_IGKJ1*01 (parental)

ECL signal [9]: 317 | ECL signal [10]: 212 | ECL signal [11]: 1150 | ECL signal [12]: 660
B2: Fab VH1-46_IGHD6-13*01_IGHJ4*01 & O1_IGKJ1*01 (Fab, V domains shown)
VH: QVQLVQSGAEVKKPGASVKVSCKASGYTFTSYYMHWVRQAPGQGLEWMGIINPSGGSTSYAQKFQGRVTMTRDTSTSTVYMELSSLRSEDTAVYYCAREGYSSSWYDYFDYWGQGTLVTVSS
VL: DIVMTQTPLSLPVTPGEPASISCRSSQSLLDSDDGNTYLDWYLQKPGQSPQLLIYTLSYRASGVPDRFSGSGSGTDFTLKISRVEAEDVGVYYCMQRIEFPSWTFGQGTKVEIKR
notes: Germline library Fab expressed in E. coli; VH was cloned into Plasmid A (CH1 constant region, His6 and Flag tags); The kappa VL was cloned into Plasmid C (kappa CL)

ECL signal [13]: 440 | ECL signal [14]: 273 | ECL signal [15]: 200 | ECL signal [16]: 376 | ECL signal [17]: 392 | ECL signal [18]: 3370
B3: Fab VH1-46_IGHD3-10*01_IGHJ4*01 & B3_IGKJ1*01 (Fab, V domains shown)
VH: QVQLVQSGAEVKKPGASVKVSCKASGYTFTSYYMHWVRQAPGQGLEWMGIINPSGGSTSYAQKFQGRVTMTRDTSTSTVYMELSSLRSEDTAVYYCAREYYYGSGSYYNDYFDYWGQGTLVTVSS
VL: not shown
notes: Tested as a Fab made in E. coli; VH was cloned into Plasmid A (CH1 constant region, His6 and Flag tags); The kappa VL was cloned into Plasmid C (kappa CL)
